Assay results from patent US20130209454A1.

B1: NIH45-46^G54W(HC), S28Y(LC) (antibody, V domains shown)
VH: QVRLSQSGGQMKKPGESMRLSCRASGYEFLNCPINWIRLAPGRRPEWMGWLKPRWGAVNYARKFQGRVTMTRDVYSDTAFLELRSLTSDDTAVYFCTRGKYCTARDYYNWDFEHWGRGAPVTVSS
VL: EIVLTQSPATLSLSPGETAIISCRTSQYGSLAWYQQRPGQAPRLVIYSGSTRAAGIPDRFSGSRWGADYNLSISNLESGDFGVYYCQQYEFFGQGTKVQVDI
B2: NIH45-46^G54W (antibody, V domains shown)
VH: QVRLSQSGGQMKKPGESMRLSCRASGYEFLNCPINWIRLAPGRRPEWMGWLKPRWGAVNYARKFQGRVTMTRDVYSDTAFLELRSLTSDDTAVYFCTRGKYCTARDYYNWDFEHWGRGAPVTVSS
VL: EIVLTQSPATLSLSPGETAIISCRTSQSGSLAWYQQRPGQAPRLVIYSGSTRAAGIPDRFSGSRWGADYNLSISNLESGDFGVYYCQQYEFFGQGTKVQVDI

How the values were obtained:
Assay in all cases: cell-based or functional assay
[1] = molecular target: HIV-1 Env of strain 231965.c01 (HIV-1)
[2] = molecular target: HIV-1 Env of strain 231966.c02 (HIV-1)
[3] = molecular target: HIV-1 Env of strain 3301.v1.c24 (HIV-1)
[4] = molecular target: HIV-1 Env of strain 3817.v2.c59 (HIV-1)
[5] = molecular target: HIV-1 Env of strain 620345.c01 (HIV-1)
[6] = molecular target: HIV-1 Env of strain 6535.3 (HIV-1)
[7] = molecular target: HIV-1 Env of strain 6811.v7.c18 (HIV-1)
[8] = molecular target: HIV-1 Env of strain 928-28 (HIV-1)
[9] = molecular target: HIV-1 Env of strain C1080.c03 (HIV-1)
[10] = molecular target: HIV-1 Env of strain C3347.c11 (HIV-1)
[11] = molecular target: HIV-1 Env of strain CAAN5342.A2 (HIV-1)
[12] = molecular target: HIV-1 Env of strain CNE30 (HIV-1)
[13] = molecular target: HIV-1 Env of strain Ce0393_C3 (HIV-1)
[14] = molecular target: HIV-1 Env of strain Ce2010_F5 (HIV-1)
[15] = molecular target: HIV-1 Env of strain Ce2060_G9 (HIV-1)
[16] = molecular target: HIV-1 Env of strain P1981_C5_3 (HIV-1)
[17] = molecular target: HIV-1 Env of strain Q23.17 (HIV-1)
[18] = molecular target: HIV-1 Env of strain Q769.d22 (HIV-1)
[19] = molecular target: HIV-1 Env of strain R1166.c01 (HIV-1)
[20] = molecular target: HIV-1 Env of strain R2184.c04 (HIV-1)
[21] = molecular target: HIV-1 Env of strain T251-18 (HIV-1)
[22] = molecular target: HIV-1 Env of strain TRO.11 (HIV-1)
[23] = molecular target: HIV-1 Env of strain ZM109F.PB4 (HIV-1)
[24] = molecular target: HIV-1 Env of strain ZM135M.PL10a (HIV-1)
[25] = molecular target: HIV-1 Env of strain ZM53M.PB12 (HIV-1)

Row | Binder | IC50, pseudovirus neutralization [1] | IC50, pseudovirus neutralization [2] | IC50, pseudovirus neutralization [3] | IC50, pseudovirus neutralization [4] | IC50, pseudovirus neutralization [5] | IC50, pseudovirus neutralization [6] | IC50, pseudovirus neutralization [7] | IC50, pseudovirus neutralization [8] | IC50, pseudovirus neutralization [9] | IC50, pseudovirus neutralization [10] | IC50, pseudovirus neutralization [11] | IC50, pseudovirus neutralization [12] | IC50, pseudovirus neutralization [13] | IC50, pseudovirus neutralization [14] | IC50, pseudovirus neutralization [15] | IC50, pseudovirus neutralization [16] | IC50, pseudovirus neutralization [17] | IC50, pseudovirus neutralization [18] | IC50, pseudovirus neutralization [19] | IC50, pseudovirus neutralization [20] | also measured
1 | B1 | 0.001 µg/mL | 0.012 µg/mL | 0.001 µg/mL | 5.14 µg/mL | > 50 µg/mL | 0.015 µg/mL | 0.026 µg/mL | 0.045 µg/mL | 0.154 µg/mL | 0.007 µg/mL | 0.078 µg/mL | 0.082 µg/mL | 0.046 µg/mL | 0.03 µg/mL | 0.014 µg/mL | 0.012 µg/mL | 0.015 µg/mL | 0.003 µg/mL | 0.278 µg/mL | 0.008 µg/mL | IC50, pseudovirus neutralization [21]: 0.336 µg/mL; IC50, pseudovirus neutralization [22]: 0.02 µg/mL; IC50, pseudovirus neutralization [23]: 0.013 µg/mL; IC50, pseudovirus neutralization [24]: 0.049 µg/mL; IC50, pseudovirus neutralization [25]: 0.091 µg/mL
2 | B2 | 0.001 µg/mL | 0.02 µg/mL | 0.001 µg/mL | > 50 µg/mL | > 50 µg/mL | 0.03 µg/mL | 0.001 µg/mL | 0.06 µg/mL | 0.2 µg/mL | 0.001 µg/mL | 0.07 µg/mL | 0.052 µg/mL | 0.013 µg/mL | 0.038 µg/mL | 0.005 µg/mL | 0.02 µg/mL | 0.01 µg/mL | 0.001 µg/mL | 0.13 µg/mL | 0.005 µg/mL | IC50, pseudovirus neutralization [21]: 0.26 µg/mL; IC50, pseudovirus neutralization [22]: 0.04 µg/mL; IC50, pseudovirus neutralization [23]: 0.002 µg/mL; IC50, pseudovirus neutralization [24]: 0.04 µg/mL; IC50, pseudovirus neutralization [25]: 0.04 µg/mL
